From patent publication US20090098076A1, “Method For the Production of a Keratin-Binding Effector Molecule” (BASF SE, priority 2005, published 2009)

Tests used:
[1] = biological target: human skin keratin (human); assay: quantitative skin binding test (human keratinocytes in microtiter plates), anti-His antibody, TMB; details: scale: absorption at 405 nm, standardized to the surface
skin keratin = assay: Qualitative binding to skin (adhesive tape keratin layer, Examples 8 and 14); details: transparent adhesive tape with human skin keratin layer; negative control buffer only
Protocol: A visual qualitative test was developed in order to examine whether KBD binds to skin.
Blocking solution: Western Blocking Reagent 1921673 Roche (10× solution) diluted in TBS.
TBS: 20 mM Tris; 150 mM NaCl pH 7.5
The first step is the transfer of the outer keratin layer of the skin to a stable support. For this purpose, a transparent adhesive tape is firmly applied to depilated human skin and removed again. The test can be carried out directly on the transparent adhesive strip, or the adhering keratin layer can be transferred to a glass slide through renewed adhesion.
A visual qualitative test was used in order to examine whether the KBD-D (SEQ ID No.: 168) binds to skin.
Blocking solution: Western Blocking Reagent 1921673 Roche (10× solution) diluted in TBS
A blue colored precipitate, being a reaction of the antipolyhistidine-AP conjugate interacting with the KBD-D, was visible on the transparent adhesive tape treated with KBD-D. As negative control, a transparent adhesive tape was treated only with buffer. No significant blue coloration could be seen here.

[2] = biological target: human hair keratin (human hair, cut into 5 mm sections) (human); assay: quantitative hair binding test, loss relative to untreated hair after 10% strength SDS treatment
[3] = biological target: human skin keratin (human); assay: quantitative skin binding test, loss relative to untreated skin after 10% strength SDS treatment
[4] = biological target: human hair keratin (human hair, cut into 5 mm sections) (human); assay: quantitative hair binding test, anti-polyHis peroxidase conjugate, TMB; after 10% strength SDS treatment; details: scale: absorption at 405 nm, standardized to the surface
human keratinocytes = assay: Quantitative binding to skin (Example 15)
Protocol: (§1) In order to investigate the binding strength of the KBD-D (SEQ ID No.:168) to skin and hair compared to the KBD-B (SEQ ID No.:166), a quantitative test was carried out. In this test firstly hair was incubated with KBD-B or KBD-D and excess KBD-D or -D was washed off. An antibody-peroxidase conjugate was then coupled via the His/tag of the KBD-B or -D. Nonbound antibody-peroxidase conjugate was washed off again. The bound antibody-peroxidase conjugate can convert a colorless substrate (TMB) into a colored product, which was measured photometrically at 405 nm. The intensity of the absorption indicates the amount of bound KBD-B or -D.
The test for binding to skin was carried out with human keratinocytes in microtiter plates as follows. • 2× washing with PBS/0.05% Tween 20 • addition of 1 ml of 1% BSA in PBS and incubation for 1 h at room temperature, gentle swinging movements (900 rpm). • removal of the supernatant • addition of 100 μg of KBD in PBS with 0.03% Tween 20; incubation for 2 h at room temperature and gentle swinging movements (900 rpm). • removal of the supernatant • 3× washing with PBS/0.05% Tween 20 • incubation with 1 ml of monoclonal mouse anti-tag-His6 antibodies for 2-4 h at room temperature, gentle swinging movement (900 rpm) • 3× washing with PBS/0.05% Tween 20 • addition of peroxidase substrate (1 ml/Eppendorf vessels composition see below) reaction until a blue coloration (about 90 seconds). • reaction stopped with 100 μl of 2 M H2SO4. • the absorption was measured at 405 nm.
(§2) Peroxidase Substrate (Prepared Shortly Beforehand):
0.1 ml TMB solution (42 mM TMB in DMSO) +10 ml substrate buffer (0.1 M sodium acetate pH 4.9) +14.7 μl H2O2 3% strength

hair (human) = assay: Quantitative binding to hair (Example 15)
Protocol: as §1
In order to characterize the hair binding of the KBD-D compared to the KBD-B, the following binding assay was carried out:
5 mg of hair (human) were cut into sections 5 mm in length and transferred to Eppendorf vessels (protein low-bind). • addition of 1 ml of ethanol for degreasing • centrifugation, removal of ethanol and washing of the hair with H2O • centrifugation, removal of the supernatant • addition of the keratin-binding domains to be tested (coupled to tag—e.g. His6, HA etc.) in 1 ml of PBS/0.05% Tween 20; incubation for 2 h at room temperature with gentle swinging movements • centrifugation, removal of the supernatant • 3× washing with PBS/0.05% Tween 20 • incubation with 1 ml monoclonal mouse anti-tag-(His6 or HA) antibodies with peroxidase conjugate (1:2000 in PBS/0.05% Tween 20) [Monoclonal AntipolyHistidine Peroxidase Conjugate, produced in mouse, lyophilized powder, Sigma] for 2-4 h at room temperature, gentle swinging movement • 3× washing with PBS/0.05% Tween 20 • addition of peroxidase substrate (1 ml/Eppendorf vessel) • allow reaction to proceed until blue coloration (90 seconds). • stop the reaction with 100 μl of 2 M H2SO4.
The absorption was measured at 405 nm
as §2
0.1 ml TMB solution (42 mM TMB in DMSO) +10 ml substrate buffer (0.1 M sodium acetate pH 4.9) +14.7 μl H2O2 3% strength BSA=bovine serum albumin PBS=phosphate buffered salt solution Tween 20=polyoxyethylene sorbitan monolaureate, n about 20 TMB=3,5,3′,5′-tetramethylbenzidine

[5] = biological target: human skin keratin (human); assay: quantitative skin binding test (human keratinocytes in microtiter plates), anti-His antibody, TMB; after 10% strength SDS treatment; details: scale: absorption at 405 nm, standardized to the surface
[6] = biological target: human hair keratin (human hair, cut into 5 mm sections) (human); assay: quantitative hair binding test, anti-polyHis peroxidase conjugate, TMB; details: scale: absorption at 405 nm, standardized to the surface
[7] = values standardized to the surface, after 10% strength SDS treatment
[8] = values standardized to the surface, no SDS treatment

- Absorption at 405 nm [1]: 3.69
- binding to skin keratin (blue colored precipitate) (skin keratin): has bound to the skin keratin
- Relative absorption loss after 10% strength SDS treatment in % [2]: 30%
- Relative absorption loss after 10% strength SDS treatment in % [3]: 15%
- Absorption at 405 nm [4]: 0.62
- Relative absorption loss after 10% strength SDS treatment in %, skin (human keratinocytes; relative to untreated skin): 15%
- binding to skin compared with hair (in words) (human keratinocytes; summary of Tab. 10): more strongly to skin
- Absorption at 405 nm, binding to skin after 10% strength SDS treatment (human keratinocytes; [7]): 3.15
- Absorption at 405 nm, binding to skin (human keratinocytes; [8]): 3.69
- influence of washing with SDS solution on binding (human keratinocytes; washing with an up to 10% strength SDS solution, in contrast to KBD-B): only more weakly influenced
- Relative absorption loss after 10% strength SDS treatment in %, hair (hair (human); relative to untreated hair): 30%
- binding to hair (in words) (hair (human); summary of Tab. 10): can bind to hair
- Absorption at 405 nm, binding to hair after 10% strength SDS treatment (hair (human); [7]): 0.62
- Absorption at 405 nm, binding to hair (hair (human); [8]): 0.88
- Absorption at 405 nm [5]: 3.15
- Absorption at 405 nm [6]: 0.88
B1: KBD-D (keratin-binding domain of human plakophilin) with N-terminal histidine anchor (SEQ ID No.: 168) (protein)
chain: MRGSHHHHHHGSACELGTMNHSPLKTALAYECFQDQDNSTLALPSDQKMKTGTSGRQRVQEQVMMTVKRQKSKSSQSSTLSHSNRGSMYDGLADNYNYGTTSRSSYYSKFQAGNGSWGYPIYNGTLKREPDNRRFSSYSQMENWSRHYPRGSCNTTGAGSDICFMQKIKASRSEPDLYCDPRGTLRKGTLGSKGQKTTQNRYSFYSTCSGQKAIKKCPVRPPSCASKQDPVYIPPISCNKDLSFGHSRASSKICSEDIECSGLTIPKAVQYLSSQDEKYQAIGAYYIQHTCFQDESAKQQVYQLGGICKLVDLLRSPNQNVQQAAAGALRNLVFRSTTNKLETRRQNGIREAVSLLRRTGNAEIQKQLTGLLWNLSSTDELKEELIADALPVLADRVIIPFSGWCDGNSNMSREVVDPEVFFNATGCLRNLSSADAGRQTMRNYSGLIDSLMAYVQNCVAASRCDDKSVENCMCVLHNLSYRLDAEVPTRYRQLEYNARNAYTEKSSTGCFSNKSDKMMNNNYDCPLPEEETNPKGSGWLYHSDAIRTYLNLMGKSKKDATLEACAGALQNLTASKGLMSSGMSQLIGLKEKGLPQIARLLQSGNSDVVRSGASLLSNMSRHPLLHRVMGNQVFPEVTRLLTSHTGNTSNSEDILSSACYTVRNLMASQPQLAKQYFSSSMLNNIINLCRSSASPKAAEAARLLLSDMWSSKELQGVLRQQGFDRNMLGTLAGANSLRNFTSRF
